In paper PMC6526389:

Key:
[1] = target: HA-tagged human CXCR2 expressed on L1.2 cells (human) (UniProt P25025); test: radioligand binding; competition of increasing concentrations of unlabeled CXCL8 (pre-incubated with H292 or H575 culture supernatant, then Pefabloc SC) against [125I]-CXCL8 on L1.2 cells expressing HA-CXCR1 or HA-CXCR2; n = 6
[2] = target: HA-tagged human CXCR1 expressed on L1.2 cells (human) (UniProt P25024); test: as above

Recombinant human CXCL8, 72 aa form (CXCL8^1–72), intact (incubated with control H575 supernatant) (ligand)
IC50 [1]: 8.7 nM
IC50 [2]: 8.1 nM
